In patent US20250109209A1 (ABSCI, published 2025) one finds Kd data, which are given here for eight molecules.

Where two headings read alike, the source gives them in different places.

Test [1] addresses T1, human TL1A (human, UniProt O95150 72-251).
T1 construct: Antigen in SPR and ELISA; Also used here for places that print only 'TL1A' and for endogenous TL1A in human whole blood; also called TNFSF15
T1 sequence (looked up): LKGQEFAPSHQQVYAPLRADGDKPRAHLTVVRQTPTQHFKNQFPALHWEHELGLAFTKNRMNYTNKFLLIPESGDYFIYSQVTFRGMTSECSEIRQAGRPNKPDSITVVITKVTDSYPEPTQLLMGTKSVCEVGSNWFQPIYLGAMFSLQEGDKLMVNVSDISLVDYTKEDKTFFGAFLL
In words: SPR, mAb format, average. A general note: SPR reads the build-up and loss of mass on a sensor chip optically.

Test [2] has as its target T2, FcRn (UniProt P55899 24-297; P61769 21-119).
T2 construct: also called neonatal receptor
The experiment in a line: SPR, mAb format, FcRn at pH 6.0, average.

Test [3] concerns the target T1, human TL1A. In words: SPR, mAb format, average. The source holds these as a separate data set.
Test [4] addresses T3, mouse TL1A (mouse, UniProt Q5UBV8 76-252, limits assumed).
T3 sequence (looked up): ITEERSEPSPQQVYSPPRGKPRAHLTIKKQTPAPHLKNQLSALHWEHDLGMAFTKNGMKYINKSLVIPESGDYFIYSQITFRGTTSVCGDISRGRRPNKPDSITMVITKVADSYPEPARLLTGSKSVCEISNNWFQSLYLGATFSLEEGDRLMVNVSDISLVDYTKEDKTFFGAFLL
The experiment in a line: SPR, mAb format, average.

In test [5] the target is T1, human TL1A. In words: SPR, mAb format, average. The source holds these as a separate data set.
The target of test [6] is T4, Cyno TL1A (cyno, UniProt G7PRK8 72-251).
T4 sequence: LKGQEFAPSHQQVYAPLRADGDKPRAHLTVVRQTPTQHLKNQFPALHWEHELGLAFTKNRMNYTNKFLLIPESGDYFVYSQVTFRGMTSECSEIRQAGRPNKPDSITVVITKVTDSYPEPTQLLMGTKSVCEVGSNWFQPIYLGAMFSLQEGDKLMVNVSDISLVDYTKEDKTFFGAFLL
In words: SPR, mAb format, average.

T2 sequence (P55899 24-297 limits assumed, chain 1 of 2): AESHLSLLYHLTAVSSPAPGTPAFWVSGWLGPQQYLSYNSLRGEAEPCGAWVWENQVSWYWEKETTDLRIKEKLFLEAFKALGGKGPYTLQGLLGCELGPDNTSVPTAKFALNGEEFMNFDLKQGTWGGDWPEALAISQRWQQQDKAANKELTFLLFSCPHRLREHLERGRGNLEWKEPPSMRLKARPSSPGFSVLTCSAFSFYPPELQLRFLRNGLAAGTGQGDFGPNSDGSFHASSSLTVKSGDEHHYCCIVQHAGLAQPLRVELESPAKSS
T2 sequence (P61769 21-119 limits assumed, chain 2 of 2): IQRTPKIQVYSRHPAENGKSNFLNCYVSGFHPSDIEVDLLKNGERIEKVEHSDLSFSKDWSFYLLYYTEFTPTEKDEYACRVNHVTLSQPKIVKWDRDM

B1: Antibody 11 (mAb format) (antibody, human IgG1, kappa, N297A)
heavy: QVQLQESGPGLVRPSQTLSLTCTVSGFDMGDTYMHWVRQRPGRGLEWMGRIEPAGGHTKYNPSLKSRVTITRDTSKNQVSLRLSSVTAADTAVYYCVRSGGMPDVWGQGSLVTVSSASTKGPSVFPLAPSSKSTSGGTAALGCLVKDYFPEPVTVSWNSGALTSGVHTFPAVLQSSGLYSLSSVVTVPSSSLGTQTYICNVNHKPSNTKVDKKVEPKSCDKTHTCPPCPAPELLGGPSVFLFPPKPKDTLMISRTPEVTCVVVDVSHEDPEVKFNWYVDGVEVHNAKTKPREEQYASTYRVVSVLTVLHQDWLNGKEYKCKVSNKALPAPIEKTISKAKGQPREPQVYTLPPSRDELTKNQVSLTCLVKGFYPSDIAVEWESNGQPENNYKTTPPVLDSDGSFFLYSKLTVDKSRWQQGNVFSCSVLHEALHSHYTQKSLSLSPGK
light: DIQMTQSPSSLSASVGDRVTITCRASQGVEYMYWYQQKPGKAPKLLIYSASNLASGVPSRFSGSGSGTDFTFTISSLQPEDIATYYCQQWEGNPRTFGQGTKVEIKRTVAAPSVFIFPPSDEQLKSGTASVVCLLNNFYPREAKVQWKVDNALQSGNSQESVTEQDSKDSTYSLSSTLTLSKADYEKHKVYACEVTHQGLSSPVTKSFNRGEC
notes: also called high priority lead mAb
Broadly, the Kd is the free concentration of one partner at which half of the binding sites on the other are occupied at equilibrium, for simple one-to-one binding. Lower therefore signals tighter binding. Consider B1, for which the dissociation constant Kd stood at 0.2 nM in test [1]; 20.4 nM in test [2]; 0.2 nM in test [3]; 842 nM in test [4]; 0.2 nM in test [5]; 0.135 nM in test [6].

B2: Antibody 18 (mAb format) (antibody, human IgG1, kappa, N297A)
heavy: QVQLQESGPGLVRPSQTLSLTCTVSGFDMGDTYMHWVRQRPGRGLEWMGRIEPAGGHTKYNPSLKSRVTITRDTSKNQVSLRLSSVTAADTAVYYCVRSGGMPDVWGQGSLVTVSSASTKGPSVFPLAPSSKSTSGGTAALGCLVKDYFPEPVTVSWNSGALTSGVHTFPAVLQSSGLYSLSSVVTVPSSSLGTQTYICNVNHKPSNTKVDKKVEPKSCDKTHTCPPCPAPELLGGPSVFLFPPKPKDTLMISRTPEVTCVVVDVSHEDPEVKFNWYVDGVEVHNAKTKPREEQYASTYRVVSVLTVLHQDWLNGKEYKCKVSNKALPAPIEKTISKAKGQPREPQVYTLPPSRDELTKNQVSLTCLVKGFYPSDIAVEWESNGQPENNYKTTPPVLDSDGSFFLYSKLTVDKSRWQQGNVFSCSVLHEALHSHYTQKSLSLSPGK
light: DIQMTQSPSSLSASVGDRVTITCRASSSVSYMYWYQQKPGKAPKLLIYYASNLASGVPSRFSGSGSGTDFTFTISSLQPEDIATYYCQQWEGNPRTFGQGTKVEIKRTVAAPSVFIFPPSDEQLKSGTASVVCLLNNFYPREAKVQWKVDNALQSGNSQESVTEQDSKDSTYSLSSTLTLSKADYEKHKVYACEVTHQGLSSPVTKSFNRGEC
notes: as for B1
For B2, the Kd in test [1] was found to be 0.252 nM; in test [2] it was 16.2 nM; in test [3] it was 0.252 nM; in test [4], 397 nM; in test [5] it was 0.252 nM; in test [6], 0.087 nM.

B3: Antibody 19 (mAb format) (antibody, human IgG1, kappa, N297A)
heavy: QVQLQESGPGLVRPSQTLSLTCTVSGFDITDTYMHWVRQRPGRGLEWMGRIEPAGGHTKYNPSLKSRVTITRDTSKNQVSLRLSSVTAADTAVYYCVRSGGLPDVWGQGSLVTVSSASTKGPSVFPLAPSSKSTSGGTAALGCLVKDYFPEPVTVSWNSGALTSGVHTFPAVLQSSGLYSLSSVVTVPSSSLGTQTYICNVNHKPSNTKVDKKVEPKSCDKTHTCPPCPAPELLGGPSVFLFPPKPKDTLMISRTPEVTCVVVDVSHEDPEVKFNWYVDGVEVHNAKTKPREEQYASTYRVVSVLTVLHQDWLNGKEYKCKVSNKALPAPIEKTISKAKGQPREPQVYTLPPSRDELTKNQVSLTCLVKGFYPSDIAVEWESNGQPENNYKTTPPVLDSDGSFFLYSKLTVDKSRWQQGNVFSCSVLHEALHSHYTQKSLSLSPGK
light: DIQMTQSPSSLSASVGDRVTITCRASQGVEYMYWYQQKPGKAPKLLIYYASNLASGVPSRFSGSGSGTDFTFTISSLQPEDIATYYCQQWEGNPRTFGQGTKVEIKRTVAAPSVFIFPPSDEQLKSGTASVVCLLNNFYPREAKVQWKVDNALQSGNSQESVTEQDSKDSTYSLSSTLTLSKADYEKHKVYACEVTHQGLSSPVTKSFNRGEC
notes: as for B1
For the molecule B3, the dissociation constant Kd stood at 0.38 nM in test [1]; 16.5 nM in test [2]; 0.38 nM in test [3]; 691 nM in test [4]; 0.38 nM in test [5]; 0.123 nM in test [6].

B4: Antibody 20 (mAb format) (antibody, human IgG1, kappa, N297A)
heavy: QVQLQESGPGLVRPSQTLSLTCTVSGFDIQDTYMHWVRQRPGRGLEWMGRIEPASGHTKYNPSLKSRVTITRDTSKNQVSLRLSSVTAADTAVYYCARSGGMPDMWGQGSLVTVSSASTKGPSVFPLAPSSKSTSGGTAALGCLVKDYFPEPVTVSWNSGALTSGVHTFPAVLQSSGLYSLSSVVTVPSSSLGTQTYICNVNHKPSNTKVDKKVEPKSCDKTHTCPPCPAPELLGGPSVFLFPPKPKDTLMISRTPEVTCVVVDVSHEDPEVKFNWYVDGVEVHNAKTKPREEQYASTYRVVSVLTVLHQDWLNGKEYKCKVSNKALPAPIEKTISKAKGQPREPQVYTLPPSRDELTKNQVSLTCLVKGFYPSDIAVEWESNGQPENNYKTTPPVLDSDGSFFLYSKLTVDKSRWQQGNVFSCSVLHEALHSHYTQKSLSLSPGK
light: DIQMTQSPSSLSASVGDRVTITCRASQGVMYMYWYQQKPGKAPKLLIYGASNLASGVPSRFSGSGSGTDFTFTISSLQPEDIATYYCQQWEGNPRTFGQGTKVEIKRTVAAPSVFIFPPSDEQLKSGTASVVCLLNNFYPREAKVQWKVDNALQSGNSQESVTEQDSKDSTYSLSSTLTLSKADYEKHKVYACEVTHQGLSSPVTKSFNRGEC
notes: as for B1
In the case of B4, the Kd was determined as 0.079 nM in test [1]; 16.4 nM in test [2]; 0.079 nM in test [3]; 391 nM in test [4]; 0.079 nM in test [5]; 0.046 nM in test [6].

B5: Antibody 17 (mAb format) (antibody, human IgG1, kappa, N297A)
heavy: QVQLQESGPGLVRPSQTLSLTCTVSGFDMGDTYMHWVRQRPGRGLEWMGRIEPAAGHTKYNPSLKSRVTITRDTSKNQVSLRLSSVTAADTAVYYCVRSGGLPDVWGQGSLVTVSSASTKGPSVFPLAPSSKSTSGGTAALGCLVKDYFPEPVTVSWNSGALTSGVHTFPAVLQSSGLYSLSSVVTVPSSSLGTQTYICNVNHKPSNTKVDKKVEPKSCDKTHTCPPCPAPELLGGPSVFLFPPKPKDTLMISRTPEVTCVVVDVSHEDPEVKFNWYVDGVEVHNAKTKPREEQYASTYRVVSVLTVLHQDWLNGKEYKCKVSNKALPAPIEKTISKAKGQPREPQVYTLPPSRDELTKNQVSLTCLVKGFYPSDIAVEWESNGQPENNYKTTPPVLDSDGSFFLYSKLTVDKSRWQQGNVFSCSVLHEALHSHYTQKSLSLSPGK
light: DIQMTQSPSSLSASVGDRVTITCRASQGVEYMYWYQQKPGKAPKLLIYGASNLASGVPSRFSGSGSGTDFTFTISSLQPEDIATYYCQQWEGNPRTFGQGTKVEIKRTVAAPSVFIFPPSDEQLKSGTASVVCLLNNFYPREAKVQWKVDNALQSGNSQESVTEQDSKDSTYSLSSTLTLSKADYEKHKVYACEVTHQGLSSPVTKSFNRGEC
notes: as for B1
B5: the dissociation constant (Kd) in test [1] was found to be 0.172 nM; in test [2] it was 17.4 nM; in test [3], 0.172 nM; in test [4] it was 452 nM; in test [5] it was 0.172 nM; in test [6] it was 0.099 nM.

B6: Antibody 15 (mAb format) (antibody, human IgG1, kappa, N297A)
heavy: QVQLQESGPGLVRPSQTLSLTCTVSGFDIQDTYMHWVRQRPGRGLEWMGRIEPAGGHTKYNPSLKSRVTITRDTSKNQVSLRLSSVTAADTAVYYCVRSGGLPDAWGQGSLVTVSSASTKGPSVFPLAPSSKSTSGGTAALGCLVKDYFPEPVTVSWNSGALTSGVHTFPAVLQSSGLYSLSSVVTVPSSSLGTQTYICNVNHKPSNTKVDKKVEPKSCDKTHTCPPCPAPELLGGPSVFLFPPKPKDTLMISRTPEVTCVVVDVSHEDPEVKFNWYVDGVEVHNAKTKPREEQYASTYRVVSVLTVLHQDWLNGKEYKCKVSNKALPAPIEKTISKAKGQPREPQVYTLPPSRDELTKNQVSLTCLVKGFYPSDIAVEWESNGQPENNYKTTPPVLDSDGSFFLYSKLTVDKSRWQQGNVFSCSVLHEALHSHYTQKSLSLSPGK
light: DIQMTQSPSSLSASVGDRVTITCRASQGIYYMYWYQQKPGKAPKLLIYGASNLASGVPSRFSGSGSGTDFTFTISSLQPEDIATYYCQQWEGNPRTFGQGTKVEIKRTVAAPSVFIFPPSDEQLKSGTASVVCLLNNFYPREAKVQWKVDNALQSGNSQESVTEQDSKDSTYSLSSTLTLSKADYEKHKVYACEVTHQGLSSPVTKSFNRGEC
notes: as for B1
For the molecule B6, the equilibrium dissociation constant (Kd) in test [1] came out at 0.067 nM; in test [2], 17.4 nM; in test [3], 0.067 nM; in test [4], 162 nM; in test [5], 0.067 nM; in test [6], 0.046 nM.

B7: Antibody 14 (mAb format) (antibody, human IgG1, kappa, N297A)
heavy: QVQLQESGPGLVRPSQTLSLTCTVSGLDPDDTYMHWVRQRPGRGLEWMGRIEPAGGHTKYNPSLKSRVTITRDTSKNQVSLRLSSVTAADTAVYYCVISGGLPDVWGQGSLVTVSSASTKGPSVFPLAPSSKSTSGGTAALGCLVKDYFPEPVTVSWNSGALTSGVHTFPAVLQSSGLYSLSSVVTVPSSSLGTQTYICNVNHKPSNTKVDKKVEPKSCDKTHTCPPCPAPELLGGPSVFLFPPKPKDTLMISRTPEVTCVVVDVSHEDPEVKFNWYVDGVEVHNAKTKPREEQYASTYRVVSVLTVLHQDWLNGKEYKCKVSNKALPAPIEKTISKAKGQPREPQVYTLPPSRDELTKNQVSLTCLVKGFYPSDIAVEWESNGQPENNYKTTPPVLDSDGSFFLYSKLTVDKSRWQQGNVFSCSVLHEALHSHYTQKSLSLSPGK
light: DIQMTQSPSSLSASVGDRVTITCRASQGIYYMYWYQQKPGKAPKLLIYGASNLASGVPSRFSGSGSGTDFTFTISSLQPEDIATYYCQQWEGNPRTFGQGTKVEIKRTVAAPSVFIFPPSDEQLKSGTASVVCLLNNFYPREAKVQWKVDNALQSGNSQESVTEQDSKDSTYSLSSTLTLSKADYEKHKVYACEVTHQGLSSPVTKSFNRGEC
notes: as for B1
For B7, the Kd in test [1] was 0.296 nM; in test [2] it was 19.8 nM; in test [3] it was 0.296 nM; in test [4] it was 3810 nM; in test [5] it was 0.296 nM; in test [6], 0.224 nM.

B8: Antibody 12 (mAb format) (antibody, human IgG1, kappa, N297A)
heavy: QVQLQESGPGLVRPSQTLSLTCTVSGFDITDTYMHWVRQRPGRGLEWMGRIEPAGGHTKYNPSLKSRVTITRDTSKNQVSLRLSSVTAADTAVYYCVRSGGLPDVWGQGSLVTVSSASTKGPSVFPLAPSSKSTSGGTAALGCLVKDYFPEPVTVSWNSGALTSGVHTFPAVLQSSGLYSLSSVVTVPSSSLGTQTYICNVNHKPSNTKVDKKVEPKSCDKTHTCPPCPAPELLGGPSVFLFPPKPKDTLMISRTPEVTCVVVDVSHEDPEVKFNWYVDGVEVHNAKTKPREEQYASTYRVVSVLTVLHQDWLNGKEYKCKVSNKALPAPIEKTISKAKGQPREPQVYTLPPSRDELTKNQVSLTCLVKGFYPSDIAVEWESNGQPENNYKTTPPVLDSDGSFFLYSKLTVDKSRWQQGNVFSCSVLHEALHSHYTQKSLSLSPGK
light: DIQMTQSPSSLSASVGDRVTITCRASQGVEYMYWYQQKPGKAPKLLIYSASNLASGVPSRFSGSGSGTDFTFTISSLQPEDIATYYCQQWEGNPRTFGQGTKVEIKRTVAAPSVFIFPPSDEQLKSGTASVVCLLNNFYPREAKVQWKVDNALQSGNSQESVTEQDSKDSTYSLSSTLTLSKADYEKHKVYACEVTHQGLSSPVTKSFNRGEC
notes: as for B1
On to B8, for which the Kd in test [1] came out at 0.17 nM; in test [2], 19.7 nM; in test [3], 0.17 nM; in test [4], 13100 nM; in test [5] it was 0.17 nM; in test [6], 0.118 nM.
